Values of other authors, collected in PMC10502159.

Legend:
[1] = target: pCTS-L (procathepsin L) (Homo sapiens) (UniProt P07711); test: OpenSPR
[2] = target: TLR4 1-631 (Homo sapiens) (UniProt O00206); test: SPR
TLR4 (Homo sapiens) = TLR4 (Homo sapiens) (UniProt O00206); test: OpenSPR
EGFR ECD (Homo sapiens) [3] = target: EGFR ECD (Homo sapiens) (UniProt P00533); test: SPR (Biacore)
EGFR ECD (Homo sapiens) [4] = target: EGFR ECD (Homo sapiens) (UniProt P00533); test: SPR (OpenSPR)

dermcidin, sequence (P81605 20-110): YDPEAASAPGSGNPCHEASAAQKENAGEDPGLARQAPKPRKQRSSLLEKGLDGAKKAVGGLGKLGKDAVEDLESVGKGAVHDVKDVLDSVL
TLR4 1-631 (Homo sapiens), sequence (O00206 1-631): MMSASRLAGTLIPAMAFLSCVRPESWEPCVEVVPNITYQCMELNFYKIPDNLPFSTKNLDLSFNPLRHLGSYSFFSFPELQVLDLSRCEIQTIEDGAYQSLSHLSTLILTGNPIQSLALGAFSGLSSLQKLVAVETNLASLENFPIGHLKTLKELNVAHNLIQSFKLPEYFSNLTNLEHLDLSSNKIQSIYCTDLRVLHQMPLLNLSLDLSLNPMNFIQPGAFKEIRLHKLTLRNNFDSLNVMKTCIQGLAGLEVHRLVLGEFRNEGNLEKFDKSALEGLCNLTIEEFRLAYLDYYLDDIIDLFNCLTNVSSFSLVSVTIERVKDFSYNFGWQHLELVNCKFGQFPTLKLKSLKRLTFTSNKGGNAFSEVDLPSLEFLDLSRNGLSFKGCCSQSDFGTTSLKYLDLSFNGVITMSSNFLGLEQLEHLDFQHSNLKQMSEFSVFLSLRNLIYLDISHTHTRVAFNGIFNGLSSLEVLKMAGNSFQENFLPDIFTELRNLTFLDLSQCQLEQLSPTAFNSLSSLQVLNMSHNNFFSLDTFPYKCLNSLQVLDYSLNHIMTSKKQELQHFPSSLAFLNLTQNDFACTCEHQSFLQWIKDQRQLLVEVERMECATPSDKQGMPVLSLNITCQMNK
pCTS-L (procathepsin L), sequence (P07711 18-333): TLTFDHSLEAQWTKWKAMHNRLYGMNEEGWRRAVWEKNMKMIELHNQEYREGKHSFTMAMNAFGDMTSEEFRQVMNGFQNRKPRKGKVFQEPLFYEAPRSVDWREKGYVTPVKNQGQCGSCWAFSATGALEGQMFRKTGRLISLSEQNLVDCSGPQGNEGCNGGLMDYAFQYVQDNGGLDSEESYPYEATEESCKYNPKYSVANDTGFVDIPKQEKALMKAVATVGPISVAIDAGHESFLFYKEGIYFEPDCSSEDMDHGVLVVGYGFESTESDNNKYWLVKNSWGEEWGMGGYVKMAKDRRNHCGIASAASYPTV
pCTS-L (procathepsin L) (Homo sapiens), sequence (P07711 18-333): as above
procathepsin L (pCTS-L) 17-333, sequence (P07711 17-333): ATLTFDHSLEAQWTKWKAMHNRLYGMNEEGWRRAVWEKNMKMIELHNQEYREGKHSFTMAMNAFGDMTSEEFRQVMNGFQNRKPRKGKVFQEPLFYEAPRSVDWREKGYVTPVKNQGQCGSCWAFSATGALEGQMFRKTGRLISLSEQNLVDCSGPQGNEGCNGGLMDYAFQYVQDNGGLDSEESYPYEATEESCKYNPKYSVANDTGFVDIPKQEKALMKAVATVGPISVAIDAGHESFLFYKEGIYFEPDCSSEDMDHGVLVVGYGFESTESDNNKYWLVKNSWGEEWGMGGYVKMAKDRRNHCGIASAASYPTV
TLR4 (Homo sapiens), sequence (O00206 24-631): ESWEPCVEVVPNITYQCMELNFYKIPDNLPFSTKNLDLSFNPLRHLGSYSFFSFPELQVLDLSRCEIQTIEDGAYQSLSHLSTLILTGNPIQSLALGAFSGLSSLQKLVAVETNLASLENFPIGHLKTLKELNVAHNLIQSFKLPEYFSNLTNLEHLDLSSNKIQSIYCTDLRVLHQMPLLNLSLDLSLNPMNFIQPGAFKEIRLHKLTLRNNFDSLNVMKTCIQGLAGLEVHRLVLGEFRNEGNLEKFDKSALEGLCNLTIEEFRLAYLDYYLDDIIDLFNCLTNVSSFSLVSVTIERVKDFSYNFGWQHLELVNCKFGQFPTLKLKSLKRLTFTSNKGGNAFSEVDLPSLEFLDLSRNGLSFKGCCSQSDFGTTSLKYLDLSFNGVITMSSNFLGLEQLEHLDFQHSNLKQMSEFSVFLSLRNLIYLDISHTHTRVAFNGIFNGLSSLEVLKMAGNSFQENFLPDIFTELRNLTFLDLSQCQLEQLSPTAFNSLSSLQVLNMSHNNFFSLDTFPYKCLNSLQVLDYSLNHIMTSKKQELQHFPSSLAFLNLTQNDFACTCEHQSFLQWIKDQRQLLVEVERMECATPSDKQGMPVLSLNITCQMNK
TLR4, sequence (O00206 24-631): as above

For TLR4 (from UniProt O00206), the Kd [1] is listed as 64.6 nM.
For “procathepsin L (pCTS-L) 17-333 (from UniProt P07711)”, the Kd [2] is listed as 64.6 nM.
In the case of “pCTS-L (procathepsin L) (from UniProt P07711)”, the Kd (TLR4 (Homo sapiens)) is given as 20.2 nM.
In the case of dermcidin (from UniProt P81605), the Kd (EGFR ECD (Homo sapiens) [3]) is given as 58.8 nM and the Kd (EGFR ECD (Homo sapiens) [4]) is given as 58.1 nM.
